According to the Human Domainome abundance scans (Beltran et al. 2025):
± gives the uncertainty stated by the source.

B1: Zinc finger homeobox protein 4, residues 2183 to 2238; numbered along this chain, Q86UP3 (parent)
chain: SSRTRFTDYQLRVLQDFFDTNAYPKDDEIEQLSTVLNLPTRVIVVWFQNARQKARK
B2: Tyrosine-protein kinase BTK, residues 215 to 273; numbered along this chain, Q06187 (parent)
chain: ELKKVVALYDYMPMNANDLQLRKGDEYFILEESNLPWWRARDKNGQEGYIPSNYVTEAE

Variants of: B1
Test: abundance fitness (aPCA) (normalised: wild type 0, dead -1); higher = more abundant; growth selection in yeast, the domain comes from the species named
Settings: Homo sapiens

Abundance fitness: each site, then its substitutions
R3: D 0.343 ± 0.14, I 0.489 ± 0.16, N 0.364 ± 0.13, L 0.358 ± 0.089, A 0.358 ± 0.083, V 0.334 ± 0.08, H 0.367 ± 0.12, Q 0.053 ± 0.11, Y 0.198 ± 0.16, T 0.368 ± 0.13, E 0.201 ± 0.11, F 0.32 ± 0.2, M 0.344 ± 0.12, K 0.31 ± 0.12, C 0.484 ± 0.099, G 0.297 ± 0.065, P 0.09 ± 0.12, W 0.253 ± 0.094
T4: L 0.072 ± 0.083, D 0.015 ± 0.16, E -0.368 ± 0.13, N 0.047 ± 0.14, W -0.433 ± 0.12, K -0.571 ± 0.15, Y 0.323 ± 0.16, H 0.096 ± 0.13, Q -0.269 ± 0.16, G -0.328 ± 0.092, C -0.446 ± 0.13, R -0.533 ± 0.08, S 0.019 ± 0.087, V -0.602 ± 0.11, F -0.182 ± 0.16, P -0.109 ± 0.11, A -0.698 ± 0.14, M 0.392 ± 0.11
S2: R -0.106 ± 0.091, H -0.106 ± 0.16, E 0.195 ± 0.11, I -0.059 ± 0.13, A -0.407 ± 0.094, K 0.053 ± 0.19, T 0.151 ± 0.13, M 0.102 ± 0.17, Y -0.07 ± 0.14, D 0.254 ± 0.11, V -0.043 ± 0.087, F -0.229 ± 0.14, Q 0.262 ± 0.16, W -0.477 ± 0.17, N 0.125 ± 0.15, P -0.012 ± 0.12, G -0.004 ± 0.077, C 0.197 ± 0.096, L -0.144 ± 0.098
S1: Y -0.241 ± 0.17, F 0.106 ± 0.2, M 0.045 ± 0.28, T -0.009 ± 0.16, A 0.062 ± 0.2, P -0.575 ± 0.29, G 0.276 ± 0.15, C 0.092 ± 0.18, W -1.16 ± 0.35, I -0.026 ± 0.34
R5: T 0.22 ± 0.13, E 0.218 ± 0.22, W -0.11 ± 0.17, H 0.194 ± 0.15, D 0.338 ± 0.29, Y 0.213 ± 0.15, C 0.272 ± 0.11, G -0.109 ± 0.11, P 0.001 ± 0.12, I 0.238 ± 0.13, L 0.193 ± 0.1, M 0.309 ± 0.15, K 0.195 ± 0.2, V 0.133 ± 0.13, N 0.358 ± 0.14, Q -0.241 ± 0.24

Variants of: B2
Test: as above
Settings: Homo sapiens

Abundance fitness: each site, then its substitutions
D10: F -0.758 ± 0.24, C -0.783 ± 0.37
M14: P -0.002 ± 0.049, R 0.051 ± 0.035, C -0.08 ± 0.059, W -0.129 ± 0.042, I -0.049 ± 0.049
N15: W -0.14 ± 0.04, D -0.018 ± 0.049, F -0.176 ± 0.045, R 0.026 ± 0.03
F28: I -0.021 ± 0.052, E 0.002 ± 0.055, K -0.141 ± 0.06, C -0.096 ± 0.055, P -0.631 ± 0.1, Q -0.069 ± 0.079, A -0.055 ± 0.041, T -0.02 ± 0.045
T56: P -0.733 ± 0.07, M 0.025 ± 0.058, I -0.184 ± 0.071, Q 0.043 ± 0.067, S -0.03 ± 0.04
P13: E -0.343 ± 0.06, C -0.235 ± 0.056, K -0.119 ± 0.066, N -0.275 ± 0.1, L -0.734 ± 0.048
E57: W -0.051 ± 0.042, T -0.006 ± 0.051, N 0.088 ± 0.069, Q -0.024 ± 0.043, L -0.057 ± 0.037, F -0.026 ± 0.063
Y54: H -0.009 ± 0.066, L -0.109 ± 0.034, D -0.562 ± 0.094, S 0.022 ± 0.037, W -0.074 ± 0.06
K3: T -0.117 ± 0.062
L2: E -0.126 ± 0.06, Y -0.036 ± 0.073, K -0.095 ± 0.08, H -0.167 ± 0.12, C -0.177 ± 0.047, S -0.075 ± 0.04, A -0.093 ± 0.07
Q46: V 0.044 ± 0.037, Y -0.127 ± 0.087, F -0.028 ± 0.06
N44: R -0.067 ± 0.043, C -0.019 ± 0.076, S -0.05 ± 0.049
V6: E -0.135 ± 0.041, W -0.067 ± 0.042, M -0.1 ± 0.044, Q -0.025 ± 0.038, P -0.796 ± 0.049
D25: E 0.019 ± 0.043, K -0.067 ± 0.045
E32: V 0.014 ± 0.053, N -0.055 ± 0.11, K -0.133 ± 0.08, W -0.09 ± 0.07
G45: C -0.162 ± 0.064, N 0.008 ± 0.093, F -0.173 ± 0.073, V -0.641 ± 0.046, R -0.16 ± 0.032, Y -0.062 ± 0.072, T -0.425 ± 0.062
G48: Y -0.968 ± 0.15, T -0.886 ± 0.069, Q -0.845 ± 0.075, D -0.791 ± 0.11, P -0.68 ± 0.088
D18: A -0.017 ± 0.041, S -0.051 ± 0.036, R 0.004 ± 0.031, P -0.469 ± 0.051, E 0.05 ± 0.039, G -0.038 ± 0.037, K -0.048 ± 0.044, H 0.146 ± 0.065
S52: E -0.065 ± 0.066
